Experimental data published in US20230374150A1 (Memorial Sloan Kettering, published 2023).
Values joined by “and” are separate entries in the source; they are usually repeats but may differ in a detail not shown here. Identical values can stand only once.

Columns and labels:
[1] = biological target: PSMA on PSMA(+) canine osteosarcoma cell lines (D-17, DSN, DAN, DSDh) (canine, UniProt I4IY07 29-779); test: cell-based or functional assay
[2] = biological target: PSMA on PSMA(+) human prostate cancer cell lines (LNCaP-AR, PC3-PIP, CWR22, VCaP) (human, UniProt Q04609 1-750); test: cell-based or functional assay
Chain of PSMA on PSMA(+) human prostate cancer cell lines (LNCaP-AR, PC3-PIP, CWR22, VCaP) (Q04609 whole entry): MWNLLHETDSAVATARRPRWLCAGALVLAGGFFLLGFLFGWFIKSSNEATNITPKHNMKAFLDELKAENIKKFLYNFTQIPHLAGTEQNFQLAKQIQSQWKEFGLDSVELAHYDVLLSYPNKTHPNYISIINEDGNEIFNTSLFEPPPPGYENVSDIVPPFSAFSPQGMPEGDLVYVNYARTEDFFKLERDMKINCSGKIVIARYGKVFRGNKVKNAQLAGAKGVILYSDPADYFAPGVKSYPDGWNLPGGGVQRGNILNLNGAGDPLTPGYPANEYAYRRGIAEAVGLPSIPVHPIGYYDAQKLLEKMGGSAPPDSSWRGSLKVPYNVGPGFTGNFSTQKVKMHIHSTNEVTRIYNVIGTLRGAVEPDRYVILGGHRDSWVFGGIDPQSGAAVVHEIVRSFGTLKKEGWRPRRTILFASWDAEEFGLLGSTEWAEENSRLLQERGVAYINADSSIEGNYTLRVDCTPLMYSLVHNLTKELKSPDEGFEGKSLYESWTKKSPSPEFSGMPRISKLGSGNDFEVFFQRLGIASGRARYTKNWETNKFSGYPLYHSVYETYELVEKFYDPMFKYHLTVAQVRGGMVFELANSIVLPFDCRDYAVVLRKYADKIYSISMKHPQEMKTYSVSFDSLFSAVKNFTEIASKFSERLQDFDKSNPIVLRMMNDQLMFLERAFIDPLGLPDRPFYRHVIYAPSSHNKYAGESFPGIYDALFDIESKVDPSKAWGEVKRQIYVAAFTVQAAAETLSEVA

Human PSMA antigen = biological target: T1, Human PSMA antigen (human, UniProt Q04609 44-750, limits assumed); test: SPR Biacore, immobilised human PSMA, 37 C, 1:1 fit
T1 construct: This is the antigen immobilised on the Biacore chip; also called FOLH1_HUMAN
T1 sequence (Q04609 44-750 limits assumed): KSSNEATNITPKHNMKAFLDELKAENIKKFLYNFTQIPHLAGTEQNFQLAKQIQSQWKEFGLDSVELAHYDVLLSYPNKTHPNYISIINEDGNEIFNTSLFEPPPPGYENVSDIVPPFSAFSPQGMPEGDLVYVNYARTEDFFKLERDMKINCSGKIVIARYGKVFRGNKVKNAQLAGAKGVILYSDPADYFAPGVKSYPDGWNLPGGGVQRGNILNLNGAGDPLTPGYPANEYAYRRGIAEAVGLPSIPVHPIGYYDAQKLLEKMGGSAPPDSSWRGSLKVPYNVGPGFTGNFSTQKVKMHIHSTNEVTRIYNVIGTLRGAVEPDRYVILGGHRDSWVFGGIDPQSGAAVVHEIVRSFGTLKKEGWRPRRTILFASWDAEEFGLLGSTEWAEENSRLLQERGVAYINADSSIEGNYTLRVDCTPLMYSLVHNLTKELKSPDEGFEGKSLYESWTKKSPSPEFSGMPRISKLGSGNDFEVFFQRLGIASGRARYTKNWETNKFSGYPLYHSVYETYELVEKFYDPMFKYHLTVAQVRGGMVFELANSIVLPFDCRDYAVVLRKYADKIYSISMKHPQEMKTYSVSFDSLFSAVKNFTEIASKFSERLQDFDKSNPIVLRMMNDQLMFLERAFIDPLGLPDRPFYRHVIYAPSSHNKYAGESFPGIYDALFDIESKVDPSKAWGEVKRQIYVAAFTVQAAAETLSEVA
Method: (§1) PSMA-BsAb Biacore Settings. Human PSMA antigen was immobilized directly on Fc2 at 3000 RU, and cynomolgus PSMA (ACRO) on Fc4 at 3000 RU (Blank on Fc1 and Fc3 as controls). Abs were run through the system at 37° C., at concentrations of 250 and 500 nM, with association time 1 min, dissociation time 15 min. Regeneration was performed at 30 mM NaOH. All data were fitted with 1:1 model.

cynomolgus PSMA (ACRO) = biological target: T2, cynomolgus PSMA (ACRO) (cynomolgus, UniProt A0A2K5VNZ0 44-750); test: SPR Biacore, immobilised cynomolgus PSMA, 37 C, 1:1 fit
T2 construct: Immobilised on the Biacore chip
Method: as §1

Chain of PSMA on PSMA(+) canine osteosarcoma cell lines (D-17, DSN, DAN, DSDh) (I4IY07 entry or part of it limits assumed): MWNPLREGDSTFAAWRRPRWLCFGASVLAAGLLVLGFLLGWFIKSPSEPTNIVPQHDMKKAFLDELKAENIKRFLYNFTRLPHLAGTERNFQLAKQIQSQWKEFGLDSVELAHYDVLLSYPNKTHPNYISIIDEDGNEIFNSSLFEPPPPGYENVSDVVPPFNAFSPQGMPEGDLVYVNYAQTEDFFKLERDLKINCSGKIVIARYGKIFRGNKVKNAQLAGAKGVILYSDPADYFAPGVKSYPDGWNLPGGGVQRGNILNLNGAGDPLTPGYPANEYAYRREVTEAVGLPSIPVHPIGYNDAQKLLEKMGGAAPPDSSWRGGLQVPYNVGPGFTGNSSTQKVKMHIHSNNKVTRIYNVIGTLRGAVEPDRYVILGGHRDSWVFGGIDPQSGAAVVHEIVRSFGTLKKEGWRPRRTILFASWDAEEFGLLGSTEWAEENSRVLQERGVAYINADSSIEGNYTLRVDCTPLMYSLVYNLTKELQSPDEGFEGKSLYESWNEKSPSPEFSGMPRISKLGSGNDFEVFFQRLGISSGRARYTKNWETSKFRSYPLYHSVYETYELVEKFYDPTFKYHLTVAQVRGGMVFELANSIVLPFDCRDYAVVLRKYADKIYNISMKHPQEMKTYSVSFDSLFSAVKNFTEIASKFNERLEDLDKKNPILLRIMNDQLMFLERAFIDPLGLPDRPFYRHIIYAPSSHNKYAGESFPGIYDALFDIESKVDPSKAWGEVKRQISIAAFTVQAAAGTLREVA

B1: humanized anti-PSMAxCD3 BsAb BC244 (H3L1) (bispecific antibody, human IgG1, kappa, N297A)
light: DIQLTQSPSFLSASVGDRVTITCRASQDVGTALDWYQQKPGKAPKLLIYWASTLHSGVPSRFSGSGSGTEFTLTISSLQPEDFATYYCQQYNSYPLTFGQGTKLEIKRTVAAPSVFIFPPSDEQLKSGTASVVCLLNNFYPREAKVQWKVDNALQSGNSQESVTEQDSKDSTYSLSSTLTLSKADYEKHKVYACEVTHQGLSSPVTKSFNRGECTSGGGGSGGGGSGGGGSQVQLVQSGGGVVQPGRSLRLSCKASGYTFTRYTMHWVRQAPGKCLEWIGYINPSRGYTNYNQKFKDRFTISRDNSKNTAFLQMDSLRPEDTGVYFCARYYDDHYSLDYWGQGTPVTVSSGGGGSGGGGSGGGGSGGGGSGGGGSGGGGSDIQMTQSPSSLSASVGDRVTITCSASSSVSYMNWYQQTPGKAPKRWIYDTSKLASGVPSRFSGSGSGTDYTFTISSLQPEDIATYYCQQWSSNPFTFGCGTKLQITR
heavy: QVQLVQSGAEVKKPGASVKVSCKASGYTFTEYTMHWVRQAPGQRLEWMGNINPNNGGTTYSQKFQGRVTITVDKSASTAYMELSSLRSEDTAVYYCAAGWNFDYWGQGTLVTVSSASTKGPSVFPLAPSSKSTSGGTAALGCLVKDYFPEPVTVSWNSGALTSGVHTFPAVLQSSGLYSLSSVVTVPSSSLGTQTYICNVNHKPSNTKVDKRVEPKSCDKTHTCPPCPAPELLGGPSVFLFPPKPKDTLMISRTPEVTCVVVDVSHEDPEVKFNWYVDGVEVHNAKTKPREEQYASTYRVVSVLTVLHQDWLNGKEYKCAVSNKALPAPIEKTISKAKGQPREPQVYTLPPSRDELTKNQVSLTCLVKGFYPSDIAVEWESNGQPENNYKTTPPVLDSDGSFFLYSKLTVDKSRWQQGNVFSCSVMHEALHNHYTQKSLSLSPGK
notes: IgG(L)-scFv format, J591_VL-1 + J591_VH-3; also called PSMA-BsAb
With B1 the “EC50, ADTC (4-hour 51Cr release), D-17 cells” value [1] was 0.106 nM, the “EC50, ADTC (4-hour 51Cr release), DAN cells” value [1] was 0.102 nM and the “EC50, ADTC (4-hour 51Cr release), DSDh cells” value [1] was 0.152 nM. For the same binder, the “EC50, ADTC (4-hour 51Cr release), DSN cells” value [1] was 0.0703 nM, the “EC50, ADTC (4-hour 51Cr release), LNCaP-AR cells” value [2] was 0.000761 µg/mL and 3.81 pM and the “EC50, ADTC (4-hour 51Cr release), PC3-PIP cells” value [2] was 2.1e-05 µg/mL and 107 fM. For the same binder, the “EC50, ADTC (4-hour 51Cr release), VCaP cells” value [2] was 0.0163 µg/mL and 81.7 pM, the Kd (Human PSMA antigen) was 1.18 nM and the koff (Human PSMA antigen) was 0.000162 s⁻¹. The kon (Human PSMA antigen) was 138000 M⁻¹ s⁻¹, the “t ½” value (Human PSMA antigen) was 71.2 min and the Kd (cynomolgus PSMA (ACRO)) was 2.79 nM. For the same binder, the koff (cynomolgus PSMA (ACRO)) was 0.000329 s⁻¹, the kon (cynomolgus PSMA (ACRO)) was 118000 M⁻¹ s⁻¹ and the “t ½” value (cynomolgus PSMA (ACRO)) was 35.1 min.
